Test results reported in the nanobody polyreactivity screen of Harvey et al. (2022).

Experiment: yeast display, Sf9 membrane polyspecificity reagent, FACS + sequencing; frameworks hold sequencing errors
How it was run: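 Synthetic nanobody libraries on Saccharomyces cerevisiae BJ5465 were galactose-induced for 36–48 hours, stained 1 hour at 4 °C with 10% biotinylated, detergent-solubilized Sf9 membrane reagent and enriched on streptavidin microbeads. FACS then separated cells into low and high (top ~1%) gates by anti-HA (expression) and streptavidin (reagent binding) fluorescence. Genes were colony-PCR amplified, MiSeq 2 × 250 sequenced and CDR-length filtered. A clone's polyreactivity label is that of its gate of origin.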

Sequence	polyreactivity (PSR sort gate)
QVQLVESGGGLVQAGGSLRLSCAPSGSIFKQYAMGWYRQAPGKERELVARITGSGGSTYYTDSVKGRFTISRDNAKNTVYLQMNSLKPEDTAVYYCNAGGRDAGYDYWGQGTQVTVSS	low polyreactivity
QVQLVESGGGLVQAGGSLRLSCAPSGSIFKYNTMGWYRQEPGKERELVATISGGGRTYYADSVKGRFTISRDNAKNTDYLQMNSLKPVDTAVYYCAARKRGNFTYDYWGQGTQVTVSS	high polyreactivity
QVQLVESGGGLVQAGGSLRLSCAPSGSIFPYAMGWYRQAPGKERELVAAITRSGASTYYADSVKGRFTISRDNAKNTVYLQLNSLKPEDTAVYYCAAYALRGVRYPYRVDFYYWGQGTQVTVSS	high polyreactivity
QVQLVESGGGLVQAGGSLRLSCAPSGSIFVTYAMGWYRQAPGKERELVAAISTSGGSTYADSVKGRFTISRVNAKNTVYLQMNSLKPEDTAVYYCNADDPGYAVPWYWFKYDYWGQGTQVTVSS	low polyreactivity
QVQLVESGGGLVQAGGSLRLSCAPSGSTFGDNAMGWYRQAPGKERELVAAISSGGGSTYYADSVKGRFTISRDNAKNTVYLQMNSLKPEDTAVYYCAADGTLTLYRYILDYWGQGTQVTVSS	low polyreactivity
QVQLVESGGGLVQAGGSLRLSCAPSGSTFLDNAMGLYRQAPGKESELVAAISRGGSTNYADSVKWLFTSSRDNAKNTVYLQMNSLKPEDTAVYYCAARVNYASRYWYYIIRGTIDYYWGQGTQVTVSS	low polyreactivity
QVQLVESGGGLVQAGGSLRLSCAPSGSTFPLYAMGWYRQAHGNEREFVAAIRWIGGSTYYADSVKGRFTISRDNAKNTVYLQMNSLKPEDTAVYYCAADYVVSAFDYWGQGTQVTVSS	low polyreactivity
QVQLVESGGGLVQAGGSLRLSCAPSGSTFQYYAMGWYRQAPGKESELVATITRRGDSTYYADSVKGRFTISRDSAKNTVYFQMNSLKPEDTAVYYCATRYWRSGYDWPYGSWGQGTQETVSS	high polyreactivity
QVQLVESGGGLVQAGGSLRLSCAPSGTIFYSYAMGWYRQAPGKERELVAAISQRGGSTYYADSVKGRFTISRDNAKNTVYLQMNSLKPEDTAVYYCNAVYRRAQFLYGYDYWGQGTQVTVSS	high polyreactivity
QVQLVESGGGLVQAGGSLRLSCAPSGYTFIFNVMGWYRQAPGKERELVAAISYSGGSTNYADSVKGRYTTSRDNAKNTVYFQMNSLKPEDTAVYYCNARTVSRNGYQDDYWGQGTQVTVSS	low polyreactivity
QVQLVESGGGLVQAGGSLRLSCAPTGSIFSVYAMGWYRHAPGKESELVATISSSGSTNYADSVKGRFTISRDNAKNTVYLQMNSLKPEDTAVYYCNVVGEYTQSDYSGYDYWGQGTQVTLSS	low polyreactivity
QVQLVESGGGLVQAGGSLRLSCASSGFIFGRNAMGWYRQAPGKERELVAGISSRGGRTYYADSVKGRFTISRDNAKITVYLEMNSLKPEDTAEYYCAAAGLTDYVRYDYWGQGTQVTVSS	high polyreactivity
QVQLVESGGGLVQAGGSLRLSCASSGFIFSSYAMGWYRQAPGKERELVARISLSGGSTFYADSVKGRFTISRDNAKNTVYFQMNSLKPEDTAVYYCAARDFSTHFSPMDYWGQGTQVTVSS	low polyreactivity
QVQLVESGGGLVQAGGSLRLSCASSGFIFSTSALGWYRQAPGKERELVAAISRTGGSTYYADSDKGRFTISRDNANNTVYLQMNSLKPEDTAVYYCAAAIYSFWYEYNYWGHGTQVTVSS	high polyreactivity
QVQLVESGGGLVQAGGSLRLSCASSGFSFLSYTMGWYRQAPGKERELVAAITSGGSTYYADSVKGRFTISRDNAKNTVYLQMNSLKPEDTAVYYCAVTYRWHTFIYDYWGQGTQVTVSS	low polyreactivity
QVQLVESGGGLVQAGGSLRLSCASSGFTFRGYAIGWYRQAPGKERELVAAITGGGSTNYADSVKGRFTISRDNAKNTVYLQMNSLKPEDTAVYYCAADASWALFAWAHYDYWGEGTQVTVSS	low polyreactivity
QVQLVESGGGLVQAGGSLRLSCASSGFTFRLNAMGWYRQAPGKERELVAAITRSGGNTYYADSVKGRFTISRDNAKNTVYLQMNSLKPEDTAVYYCAVRQLDRRSPKYNYWGQGTQVTVSS	high polyreactivity
QVQLVESGGGLVQAGGSLRLSCASSGFTFSVYAMGWYREAPGKERELVAAITWRGGSTYYADSVKGRFTISRDNAKNTVYLQMNSLKPEDSAVYYCAVLYPKYGKRYGYWGQGTQVTVSS	high polyreactivity
QVQLVESGGGLVQAGGSLRLSCASSGGTFPYYAMGWYRQAPGKERELVAAINYSCGSTYYADSVKGRFTISRDNAQYTVYLQMTSLKPEDTAVFYCAARYQFYRYDSTYSYWGQGTQVTVSS	high polyreactivity
QVQLVESGGGLVQAGGSLRLSCASSGIIFLTYAMGWYRQAPGKERELVAAINSTGSTNYADSVKGRFTISRDNAKYSVYLQMNSLKPDDTAVYYCAAEGLPYVRVFDFVSRYDYWGQGTQVTVSS	low polyreactivity
QVQLVESGGGLVQAGGSLRLSCASSGIIFNVYAMGWYRQAPGKERELVAAISSTSSTYADSVKGRFTISRDNAKNTVYLQMNSLKPEDTAVYYCNTDYSDGYPAFAYWGQGTQVTVSS	low polyreactivity
QVQLVESGGGLVQAGGSLRLSCASSGIIFVYYAMGWYRQAPGKERELVAVITESGVSTYYADSVKGRFTISRDNAKNTVYLQMNSLKPEDTAVYYCNRDYPYIWHKGARYWHENDYWGQGTQVTVSS	low polyreactivity

Sequence	polyreactivity (PSR sort gate)
QVQLVESGGGLVQAGGSLRLSCASSGIIFYKYAMGWYRQAPGKERELVAVISRGGGSTYYADSVKGRFTISRDNAKNTVYLQMNSLKPEDTAVYYCAADPRVTRSYTYDYWVQGTQVTVSS	high polyreactivity
QVQLVESGGGLVQAGGSLRLSCASSGLIFAYYGMVWYRQAPGKEREFVAAISWRGGSTYYADSVKGRFTISRDNAKNTVYLQMNSLKPEDTAVYYCAARPLYGSARTNYGYWGQGTQVSVSS	high polyreactivity
QVQLVESGGGLVQAGGSLRLSCASSGLIFVVYAMGWYRQAPGKERELVAAISTSGDRTYYADSVKGRFTISRDNAKNTVYLLMNSLKPEDTAVYYCAAGRRKVPYCREYYYWGQVTQVTVSS	high polyreactivity
QVQLVESGGGLVQAGGSLRLSCASSGLIFYDNMGWYRQAPGKETELVAAISSSGGSTSYADSVKGRFTISRDNAKNTVYLQMNSLKPEDTAVYYCAADSYPAYLGFFGFDYWGQGTQVTVSS	low polyreactivity
QVQLVESGGGLVQAGGSLRLSCASSGLTFAAYAMGWSRQAPGKERELVAAISRRGGSTYYADSVKGRFTISRDNAKNTVYLQMNSLKPEDTAVYYCAAENEVYWYDVEYWGQGTQVTVSS	high polyreactivity
QVQLVESGGGLVQAGGSLRLSCASSGLTFYPYAMGWYRQAPGKERELVAAISKSGGRTSYADSVKGRFTISRDNAKNTVYLQMNSLKPEDTAVYYCNARSGTFGYSTYGYWGQGTQETVSS	high polyreactivity
QVQLVESGGGLVQAGGSLRLSCASSGNTFVAYAMGWYRQAPGKERELVAGITRGGTTYYADSVKGRFTISRDNAKNTVYLQMNSLKPEDTAVYYCAARLGYRYNYWGQGTQVTVSS	high polyreactivity
QVQLVESGGGLVQAGGSLRLSCASSGRIFGIYAMGWYRQAPGKESELVARITGGGSTNYADSVKGRFTISRDNAKNTVYLQMNSLKPEDTAVYYCAATVRRIVGNITRYDYWGQGTQVTVSS	low polyreactivity
QVQLVESGGGLVQAGGSLRLSCASSGRIFGLYAMGWYRHAPGKERELVAAITLSGDGTDYADSVKGRFTISRDNAKNTVYLQMNSLKPEDTAVYYCAKVGQYWWNMDYWGQGTQVTVSS	low polyreactivity
QVQLVESGGGLVQAGGSLRLSCASSGRIFGVYAMGWYRQAPGKERELVAAITRGASTYYADSVKGRFTISRDNAKNTVYLQMNSLKPEDTAVYYCAVSQHRGIYRKYDYWGQGTQVTVSS	high polyreactivity
QVQLVESGGGLVQAGGSLRLSCASSGRIFNGNTMGWYRQAPGKERELVAGITGSSGSTYYADSVKGRFTISRDNANNSVYLPMNSLKPEDTGVYYCAAGRRYRCVGYGYWGQGTQVTVSS	high polyreactivity
QVQLVESGGGLVQAGGSLRLSCASSGRIFQFYAMGWYRQEPGKERELVASISWSGGRTYYADSVKGRFTISRDNAKNTVYLQMNSLNPEDTAVYYCAADYYDYYYWGQGTQVTVSS	high polyreactivity
QVQLVESGGGLVQAGGSLRLSCASSGRIFRGYAKGGYRQAPGKERELVADISSGASTNYADSVKGRFTISRDNAKNSVYLQMNRLKPEDTAVYYCAASIYAALIGGPGYDYWGQGTQVTVSS	low polyreactivity
QVQLVESGGGLVQAGGSLRLSCASSGRIFRSYAMGWYRQAPGKERELVAAISSGGGSTYYADSVKGRFTISRDNAKNTVYLQMNSLKPEDTAVYYCNTDFYYDDVSQAHDYWGQGTQVTVSS	high polyreactivity
QVQLVESGGGLVQAGGSLRLSCASSGRIFYTYAMGWYRQAPGKERELVAAIRYSGGSTYYADSVKGRFTISRDNAMNTVYLQINSLKPEDTAVYYCAATVYTKQFDYWGQGTQVTVSS	high polyreactivity
QVQLVESGGGLVQAGGSLRLSCASSGRIIRRNAMGWYRQAPGKERELVASISQGGSTYYADSVKGRFTISRDNAKNTVYLQMNSLKPEDTAVYYCAATLSYYVGVRYDYWGQGTQVTVSS	high polyreactivity
QVQLVESGGGLVQAGGSLRLSCASSGRTFAWYAMGWYRQAPGKERELVAAISNVGSTYYADSVKGRFTISRDNAKNTVYLQMNSLKPEDTAVYYCNADAVSTDGREYWGQGTQVTVSS	low polyreactivity
QVQLVESGGGLVQAGGSLRLSCASSGRTFQYYAMGWYRQAPGKERELVAAISSRGGSTYYADSVKGRFTISRDNAKNTVYLQMNSLKPEDTAVYYCAAYVLPRQRVRSDYWGQGTQVTVSS	high polyreactivity
QVQLVESGGGLVQAGGSLRLSCASSGRTFRYNAKGWYRQAPGKERELVAAISWSGGGTYYSDSVKGRFTISRDNAKNTVYLQMNSLKPEDTAVYYCAAEEQIPLTNNSKYYYWGQGTQVTVSS	low polyreactivity
QVQLVESGGGLVQAGGSLRLSCASSGRTFYLNAMGWYRQAPGKERELVAAISKRGGSTYYADSVKGRFTISRDNAKNTVYLQMNSLKPEDTAVYYCAKGFSFYSPRYDYWGQGTQVTVSS	high polyreactivity
QVQLVESGGGLVQAGGSLRLSCASSGRTLRRYAMGWYRQAPGKERELVAAISRSGSSTYADSVKGRFTISRDNAKNTVYLQMNSLKPEDTAVYYCNAYQPRYVYWGQGTQVTVSS	high polyreactivity
